Literature values, collected in paper PMC11750407.

Molecular target: coagulation factor Xa (Homo sapiens) (UniProt P00742)
Sequence of UniProt P00742 (P00742 41-179, chain 1 of 2): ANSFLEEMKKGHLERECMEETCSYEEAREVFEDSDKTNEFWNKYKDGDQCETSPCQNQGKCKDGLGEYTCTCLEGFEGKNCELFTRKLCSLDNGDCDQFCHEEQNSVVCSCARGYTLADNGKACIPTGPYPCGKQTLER
Sequence of UniProt P00742 (P00742 235-488, chain 2 of 2): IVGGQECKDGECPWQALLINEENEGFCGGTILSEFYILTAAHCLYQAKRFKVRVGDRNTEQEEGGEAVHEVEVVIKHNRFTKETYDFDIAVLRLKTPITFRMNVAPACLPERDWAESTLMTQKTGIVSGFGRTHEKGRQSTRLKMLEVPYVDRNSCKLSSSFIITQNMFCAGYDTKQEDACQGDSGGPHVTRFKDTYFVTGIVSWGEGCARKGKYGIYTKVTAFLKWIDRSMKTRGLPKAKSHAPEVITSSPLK

coagulation factor Va (from UniProt P12259)
Kd: 1 µM
